Measurements from patent US20260185102A1, “LIGAND-BINDING NUCLEIC ACID COMPLEX” (RENA THERAPEUTICS INC., priority 2021, published 2026).
In the oligonucleotide strings, read from the 5' end, every base follows the letter of its sugar. An asterisk marks phosphorothioate; unmarked linkages are phosphodiester. Other units and linkages are bracketed, terminal groups are in braces. A string of capitals states the bases alone. Where no end group is shown, it is not given here. [ ]: non-standard residue; d: D form. {L001} = PTH1 ligand L001 attached via a dibenzocyclooctyne-succinyl-hexylamino linker; l = locked nucleic acid (LNA); [5mC] = 5-methylcytosine; Aib = CC(C)(N)C(=O)O; d = 2'-deoxy (DNA); m = 2'-O-methyl; r = 2'-OH (RNA)

Tests used:
[1] = system: mouse Malat1 ncRNA; assay: Malat1 ncRNA expression in mouse kidney after intravenous or subcutaneous PTH1 ligand-HDO (Example 5); assay type: in vivo; conditions: intravenous, 1 μmol/kg
Method: The nucleic acid complexes used in Example 5 are each a conjugate of 16-mer HDO or ASO targeting mouse Malat1 ncRNA prepared in the example above and the PTH1 ligand. The present inventors adjusted the oligo complex with physiological saline (Otsuka Pharmaceutical Co., Ltd.), the oligo complex for animal evaluation was denatured in a block bath (CDB-105, AS ONE Corporation), and the double-stranded HDO for cell evaluation was subjected to an annealing procedure comprising denaturing at 90° C. for 10 minutes and then naturally cooling to room temperature over a period of about 2 hours in a T100 thermal cycler (Bio-Rad). […]
For mRNA extraction, tissue was fractured by bead crushing using a TissueLyser II (QIAGEN). Total RNA was extracted from the solution containing fractured tissue using the ReliaPrep™ RNA Tissue Miniprep System (Promega Corporation). cDNA was prepared from total RNA by reverse transcription using the PrimeScript™ RT Master Mix (TaKaRa). mRNA expression of each gene was measured using the real-time PCR system (StepOnePlus, Applied Biosystems). […]
All the measured values were indicated in terms of “mean±standard deviation.” Statistical analysis was performed using GraphPad Prism 9.4.0. […]

[2] = system: mouse Malat1 ncRNA; assay: mMalat1 ncRNA expression in mouse liver and kidney after intravenous L001-HDO6 (Example 3); assay type: in vivo; conditions: c57BL/6J mice, 1 μmol/kg intravenous, Day 3; compared with vehicle and L001 complementary strand groups
Method: The nucleic acid complex used in Example 3 is L001-HDO6, which is a conjugate of 16-mer HDO targeting mouse Malat1 ncRNA prepared in Example 2 and the L001 ligand. The present inventors adjusted the oligo complex to 100 μM with physiological saline (Otsuka Pharmaceutical Co., Ltd.), and double-stranded HDO was subjected to an annealing procedure comprising denaturing at 90° C. for 5 minutes and then naturally cooling to room temperature over a period of about 2 hours in a block bath (CDB-105, AS ONE Corporation).
Species differences in the PTH1 receptor, PTH, and PTHrP are insignificant between humans and mice. […]
Method Mice were divided into groups depending on body weights: the vehicle (saline, Otsuka Pharmaceutical Co., Ltd.) administration group; the L001 complementary strand (1 μmol/kg) administration group; and the L001-HDO6 (1 μmol/kg) administration group (each group consisting of 5 mice (n=5)). […] On the day of autopsy, body weight of each mouse was measured, a blood sample was taken from the heart under anesthesia with isoflurane (introduced at 3% to 5%, maintained at 1% to 3%) (Terumo syringe SS-01P2525, containing the anticoagulant heparin), and mice were euthanized by exsanguination. […]
All the measured values were indicated in terms of “mean±standard deviation.” For statistical analysis, the one-way analysis of variance (ANOVA) was performed using GraphPad Prism 7.04. […]

[3] = Tm of ligand-bound HDO6 duplex; assay type: physicochemical; conditions: HDO6 with ligand introduced into complementary strand
[4] = Intrarenal distribution, immunostained kidney images after L001-HDO6-Alexa488 (Example 4); assay type: in vivo, mouse; conditions: 1 μmol/kg, c57BL/6J mice
Method: The fluorescence-labeled ASO comprising Alexa488 bound to the 5′ terminus of the antisense strand (SEQ ID NO: 179) prepared in Example 2 was annealed to the L001 complementary strand (SEQ ID NO: 180) by the method described in Example 2 to form a duplex complex. Thus, the fluorescence-labeled HDO (L001-HDO6-Alexa488) was prepared.
The immunohistochemical test was performed with the use of c57BL/6J mice (12 mice). The fluorescence-labeled HDO (L001-HDO6-Alexa488) was intravenously administered to mice at […] once, a blood sample was taken from the heart under anesthesia with isoflurane 10 minutes, 6 hours, 24 hours, and 72 hours later, the kidney was perfused by left ventricular cannulation with 10 ml of saline followed by 10 ml of 4% paraformaldehyde solution, and the kidney was extracted from the mice. The extracted kidney was soaked in 4% paraformaldehyde to prepare frozen sections. The frozen sections were stained with Nephrin (the primary antibody: mouse Nephrin affinity purified polyclonal antibody, Goat IgG (AF3459), R&D Systems) and Alexa Fluor 594 (the secondary antibody: chicken anti-goat IgG (H+L) (A-21468), Invitrogen) to observe the renal glomerulus, and the frozen sections were stained with a DAPI (4′,6-diamidino-2-phenylindole) solution to observe the DNA-containing cell nuclei. The fluorescent images of the pathological sections were incorporated with the use of the Olympus VS120 Slide Scanning System.
The photograph in the lower right is an image obtained by superposing the aforementioned 3 photographs superposed on top of each other (merged).

[5] = target: T1, mouse Pth1R (mPth1R), stably expressed on NIH/3T3 cells (mouse, UniProt P41593 27-591); assay: cell-based or functional assay
T1 sequence (looked up): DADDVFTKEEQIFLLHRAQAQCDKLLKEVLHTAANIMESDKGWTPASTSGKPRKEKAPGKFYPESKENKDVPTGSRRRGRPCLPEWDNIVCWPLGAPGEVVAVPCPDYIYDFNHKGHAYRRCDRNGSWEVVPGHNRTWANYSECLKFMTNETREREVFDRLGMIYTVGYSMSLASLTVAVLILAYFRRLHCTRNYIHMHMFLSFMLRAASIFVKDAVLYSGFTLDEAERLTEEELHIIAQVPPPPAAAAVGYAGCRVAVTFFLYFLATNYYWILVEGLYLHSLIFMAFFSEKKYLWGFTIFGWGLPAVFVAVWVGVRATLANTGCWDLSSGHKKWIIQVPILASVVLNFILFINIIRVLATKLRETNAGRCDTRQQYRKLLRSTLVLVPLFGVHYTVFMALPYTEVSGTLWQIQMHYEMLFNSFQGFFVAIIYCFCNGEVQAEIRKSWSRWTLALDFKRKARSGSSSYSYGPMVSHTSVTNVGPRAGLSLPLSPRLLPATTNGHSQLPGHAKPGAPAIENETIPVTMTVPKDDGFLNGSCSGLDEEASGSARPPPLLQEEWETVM

[6] = 10 minutes after single intravenous administration

For “L001-HDO6: HDO targeting mouse Malat1 ncRNA: antisense strand SEQ ID NO: 179, complementary strand SEQ ID NO: 180 bound to PTH1 ligand L001 (antisense l[5mC]*lT*lA*dG*dT*dT*dC*dA*dC*dT*dG*dA*dA*lT*lG*l[5mC]; sense {L001}-mG*mC*mA*rUrUrCrArGrUrGrArArC*mU*mA*mG)”, the “Malat1 ncRNA expression in the kidney” value ([1]; Day 3, compared with the saline administration group) was “lowered to a statistically significant extent”, the “Malat1 ncRNA expression in the kidney” value ([1]; Day 3, in comparison with HDO without ligand) was “lowered to a statistically significant extent” and the “mMalat1 ncRNA expression level in the kidney” value [2] was “lowered in the L001-HDO6 administration group to a significant extent”. For the same molecule, the “mMalat1 ncRNA expression level in the liver” value [2] was “lowered in the L001-HDO6 administration group to a significant extent”, the Tm [3] was 64 °C and the “fluorescence Alexa-488 in the glomerulus” value ([4]; 6, 24, or 72 hours after single intravenous administration) was “no fluorescence was observed”. The “fluorescence Alexa-488 in kidney tubular cells” value [4, 6] was “observed”, the “fluorescence Alexa-488 in the glomerulus” value [4, 6] was “slightly observed” and the “fluorescence Alexa-488 in kidney tubular cells” value ([4]; 6 hours after single intravenous administration) was “intensified”. The “fluorescence Alexa-488 in kidney tubular cells” value ([4]; 24 hours after single intravenous administration) was “maximum fluorescence was observed” and the “fluorescence Alexa-488 in kidney tubular cells” value ([4]; 72 hours after single intravenous administration) was “still observed in many kidney tubules”.

With AVSEHQLLHDKGKSIQDLRRRELLEKLL[Aib]KLHTAK (not fully specified (residue 35); also: prints K at position 33) [L021-HDO6] the “IC50 of lowering Malat1 ncRNA expression level in the mPth1R-stably expressing cell line” value [5] was 46.8 nM.

In the case of SEHQLLHDKGKSIQDLRRRELLEKLLAKLHKA (not fully specified (residue 31)) [L003-HDO6], the “IC50 of lowering Malat1 ncRNA expression level in the mPth1R-stably expressing cell line” value [5] is reported as 88.9 nM.

For AVSEHQLLHDKGKSIQDLRRRELLEKLLAKLHKA (not fully specified (residue 33)) [L001-ASO], the “IC50 of lowering Malat1 ncRNA expression level in the mPth1R-stably expressing cell line” value [5] was 1.25 nM.

B1: L005-HDO6 (peptide)
peptide: HQLLHDKGKSIQDLRRRELLEKLLAKLHKA
modifications: not fully specified (residue 29); printed as HQLLHDKGKSIQDLRRRELLEKLLAKLH(K-PEG3-Unit)A
With B1 the “IC50 of lowering Malat1 ncRNA expression level in the mPth1R-stably expressing cell line” value [5] was 121 nM.

B2: L010-HDO6 (peptide)
peptide: DKGKSIQDLRRRELLEKLLAKLHKA
modifications: not fully specified (residue 24); printed as DKGKSIQDLRRRELLEKLLAKLH(K-PEG3-Unit)A
For B2, the “IC50 of lowering Malat1 ncRNA expression level in the mPth1R-stably expressing cell line” value [5] was 167 nM.
